The text below walks through data of PMC9164268.

As a reminder, the stoichiometry N is the number of molecules, sites or subunits per partner or assembly.

For assay [1], the target named is T1, surfactant protein D (human), P35247.
T1 chain: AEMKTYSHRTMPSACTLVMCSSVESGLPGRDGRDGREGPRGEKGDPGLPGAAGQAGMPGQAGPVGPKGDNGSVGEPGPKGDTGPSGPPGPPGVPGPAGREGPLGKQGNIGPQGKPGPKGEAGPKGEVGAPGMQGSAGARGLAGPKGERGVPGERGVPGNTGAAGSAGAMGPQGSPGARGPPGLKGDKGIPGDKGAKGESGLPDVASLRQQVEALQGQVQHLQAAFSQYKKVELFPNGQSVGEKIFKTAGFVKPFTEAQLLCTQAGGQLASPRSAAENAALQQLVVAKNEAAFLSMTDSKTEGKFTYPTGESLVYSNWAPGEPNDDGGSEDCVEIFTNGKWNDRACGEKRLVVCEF
The assay can be described thus: SEC; Sephadex G-200 column (1.5 x 12 cm, 20 mL), 0.05 M HNaPO4, 0.15 M NaCl, pH 7; 1.5 mg/mL protein loaded, 12 x 1 mL fractions, isocratic; protein in fractions by Bradford assay and slot blot with anti-SPD and anti-MAA. Particulars: remark: other sources report otherwise. (In general: Size exclusion chromatography separates by hydrodynamic size, large species first.)

The target of assay [2] is T2, MAA-adducted surfactant protein D (human), P35247.
T2 chain: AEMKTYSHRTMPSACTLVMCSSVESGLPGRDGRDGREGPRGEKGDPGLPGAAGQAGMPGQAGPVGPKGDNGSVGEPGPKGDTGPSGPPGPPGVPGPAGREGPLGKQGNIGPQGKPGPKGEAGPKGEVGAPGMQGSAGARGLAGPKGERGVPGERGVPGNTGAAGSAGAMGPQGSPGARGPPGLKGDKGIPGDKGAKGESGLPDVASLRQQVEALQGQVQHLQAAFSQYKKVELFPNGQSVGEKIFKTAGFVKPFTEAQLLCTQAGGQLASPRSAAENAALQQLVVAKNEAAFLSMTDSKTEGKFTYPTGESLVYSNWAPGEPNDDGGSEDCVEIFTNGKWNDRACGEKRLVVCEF
Described as above. Particulars: remark: other sources report otherwise.

B1: surfactant protein D, P35247 21-375 (natural protein)
chain: AEMKTYSHRTMPSACTLVMCSSVESGLPGRDGRDGREGPRGEKGDPGLPGAAGQAGMPGQAGPVGPKGDNGSVGEPGPKGDTGPSGPPGPPGVPGPAGREGPLGKQGNIGPQGKPGPKGEAGPKGEVGAPGMQGSAGARGLAGPKGERGVPGERGVPGNTGAAGSAGAMGPQGSPGARGPPGLKGDKGIPGDKGAKGESGLPDVASLRQQVEALQGQVQHLQAAFSQYKKVELFPNGQSVGEKIFKTAGFVKPFTEAQLLCTQAGGQLASPRSAAENAALQQLVVAKNEAAFLSMTDSKTEGKFTYPTGESLVYSNWAPGEPNDDGGSEDCVEIFTNGKWNDRACGEKRLVVCEF
B1: the stoichiometry N in assay [1] is 3.

B2: MAA-adducted surfactant protein D, P35247 21-375 (natural protein)
chain: AEMKTYSHRTMPSACTLVMCSSVESGLPGRDGRDGREGPRGEKGDPGLPGAAGQAGMPGQAGPVGPKGDNGSVGEPGPKGDTGPSGPPGPPGVPGPAGREGPLGKQGNIGPQGKPGPKGEAGPKGEVGAPGMQGSAGARGLAGPKGERGVPGERGVPGNTGAAGSAGAMGPQGSPGARGPPGLKGDKGIPGDKGAKGESGLPDVASLRQQVEALQGQVQHLQAAFSQYKKVELFPNGQSVGEKIFKTAGFVKPFTEAQLLCTQAGGQLASPRSAAENAALQQLVVAKNEAAFLSMTDSKTEGKFTYPTGESLVYSNWAPGEPNDDGGSEDCVEIFTNGKWNDRACGEKRLVVCEF
modifications: here or on the partner: malondialdehyde-acetaldehyde (MAA) adducts; MAA adduction occurs primarily on lysine residues; positions not given; malondialdehyde-acetaldehyde (MAA) adducts; MAA adduction occurs primarily on lysine residues; positions not given
On to B2, for which, in assay [2], the stoichiometry N was determined as 3.
